Assay results: the DeepSol protein solubility set

Assay: soluble on expression in E. coli; label from the status in PepcDB or PDB records

Sequence	soluble on expression in E. coli
MKISPSLMCMDLLKFKEQIEFIDSHADYFHIDIMDGHFVPNLTLSPFFVSQVKKLATKPLDCHLMVTRPQDYIAQLARAGADFITLHPETINGQAFRLIDEIRRHDMKVGLILNPETPVEAMKYYIHKADKITVMTVDPGFAGQPFIPEMLDKLAELKAWREREGLEYEIEVDGSCNQATYEKLMAAGADVFIVGTSGLFNHAENIDEAWRIMTAQILAAKSEVQPHAKTA	soluble
MAHHHHHHSLRLKEQSLQVTTKTGKESQKKTQTTAKSTITVDIKGAVKHEGVYTLPIDSRINDVIEKAGGFSEKADRKSVNLAQKLQDEAVIYVAAIGENISVIRDSQEGKTSQADKANTKETSVKGKVNLNTATLADLQTISGIGEKKAQDILDYREANGGFKSVDDLKNISGIGDKTFEKLKDLVSVDEG	soluble
MDTYKLILNGKTLKGETTTEAVDAATAEKVFKHYANEHGVHGHWTYDPETKTFTVTE	soluble
MNKYEEVLQELIKASGIEGAAIVSLDGLPIASVLPANAEEDKVAAMSAAILSLGERVVEELGKGTMEQITIKGDKGYVVITEIGQDAVLTTLAGQDSKLGLIYMEIKKAQQKLKELI	not soluble
MYTKNFSNSRMEVKGNNGCSAPIIRKPFKHIVLTVPSSDLDNFNTVFYVQPQYINQALHLANAFQGAIDPLNLNFNFEKALQIANGIPNSAIVKTLNQSVIQQTVEISVMVEQLKKIIQEVLGLVINSTSFWNSVEATIKGTFTNLDTQIDEAWIFWHSLSAHNTSYYYNILFSIQNEDTGAVMAVLPLAFEVSVDVEKQKVLFFTIKDSARYEVKMKALTLVQALHSSNAPIVDIFNVNNYNLYHSNHKIIQNLNLSN	soluble
MTIEEIARIVEGEILCGNKDLNIERAVATDLMSDVLAFAEPNVLLITGLHSPQAVRTAMVVGIPAVLFVRKRDIPETIVNFAKECNITVLATNLSMFETCGRLYMNGLKPVRRAIE	not soluble
MDMEVDEAISGTSSSRLAPIEEVKPTPKQIKRIAAHSHVKGLGIDTETQEAHYEAAGFVGQAPARTAASIVVDMIRLKCMAGRAVLIAGPPATGKTAIALAMSQELGDGVPFVPLVASEVFSNEVKKTEVLMRSFRRAIGLRVKETKDVYEGEVTELSPVEASDNSGMGKTISHLVLSLKTAKGSKQLKLDPSIYDSILKQRVEVGDVIYIEANSGIVKRVGRCDVYASEFDLEADEFVPMPKGDVRKSKDIVQNVSLHDLDIANARPQGRQGDVSNIVSQLMTPKKTEVTDRLRSEINKVVNEYIESGVAELMPGVLFIDEVHMLDVECFTYLYRALESPMAPVVVFATNRGTTTVRGLGDKAPHGIPPEMLDRLMIIPTMKYNEEDIRKILVHRTEAENVQFEEKAFDLLTRLCAQTCGREVIEVEDVDRCTKLFMDRGESLKKAEEEMRQPKNKK	not soluble
MPANELFGDSDPEGDEIFERVRKVQPKSINVTENQKVDPMRKVKIELQAVLVAEKIPISTEEIRRRLLDSYGACPDPKRYNCSTLDDLLQACSESIVHTFGRDGIHRYGPRTTEANQDIIEMVQQQSSSKRPARSFLGSGATNNLSTHGSSFRAFRGPYASEEIAKSRGTPEQFKARHKLGPAKTISRVKNLAEVLKEYADEIGVSHPDEPNRKIVTLAALANKFKQLYCLPAWGKNISESELYIQLNVPPFNEYLHFWRLSEKGDIFVDCIDRDNADPTQKSEQNPSADVSIQSESFGGKSSASAFEQSVVSAPSTIRDQTSDSFDGFNSFEVPPENGSKDSKIFNSNQESIDDYPGNAISRDRTADMTDIALRFGTVSVASQQCPVSSSLVPQNGILRQSRAQEDDNNTSILTIQSSRRNHSVLRHRTIKPRNPTQNLAEVVKTHGSIPYEALSDCDKIIVDLGKNIFKVYATQPGEMMVRLCDPHVDTTTLPLLENNLRDPVESDLRWMTLGNSHIKKQSVKVVKPAMFIAPRGFLLILKDEEREEMDVEKVATMGNILRAVMVAPIVELQRETVRTGSAAVYVYRQGAEVRYYRVLIVGQAKQDGEVLVLLADVDDQYFVDVHLSHLFPIPEEASFKHFPSNVVFATLHGVLGLTLSEQDVMFENIDNDDTKRFVGGYFHGNDDRILNIDMVWKNERGQFEWLSQIVKRRGAVTSSDANIIHFPHSALDVIKSVGPDCSVCFVDYSVRDESATSSLMESTRIVHDSRESMTTTYVGEMPSPIIEEIDATSSFDPKLLNLHSLFDKLIEEQNVTMIVGMFQFVRSLKDLFGDNNEWERLLTYMLTTGKNNNIRL	not soluble
MNSSLSLLHPYPFEKLNVLFKDVTPADLPLIPLSIGEPKHPAPEFVKQAIIDNFNHLSTYPNSKGLPELRESIARWLTQRFQLNHISSEDHILPVTGTREGIFSFVQALINRDEAPYVVMPNPFYQIYEGATLLAGAKPYFINCTAENDYLGDFDAVPSEVWEKTALLFVCTPGNPTGAVLSKEKLKKLIQLSDQYNFVIASDECYSELWFDQAPVGLLEVCAEIGRDNYKNCIVFHSLSKRSNLPGMRSGFVAGDAELLKPYLKFRTYHGAAMPVQHQLASIAAWNDEAHVEENRQQYRAKFNLFQSELGQLIPLKKPDAGFYYWLHVDNDEAFAKMLMEKAHIKVLPGRYLSRETEQGNPGENHVRMALVADLAQCEQVVQRLKKVL	not soluble
MGSDKIHHHHHHMRSHGGDVYKVSPNYDRITDMSSNVNPFLDLGKYSLYPEISYTDIEEKLRVYTKSTNMGIVIGPGLTHLIYKYFEFYQVKKPIIAMPNFSEYKGIAEDRHLRFSAIPSYIIEKDPLILKNFDHDALFITSPSNPFGELFPESTLETVFEIEEKRGRRVFLDGAFMDFVPNYAESIVQSSRSYFNVTIGRSLTKILAIPSLRAGYLIMERHEADLFRKAMEPWSICQPAIDFIRSIDINEVAKNSVALVNGEREYLISELKARGIKVIGNPSANYIVISMPRTDEFYNFMLSKGILVRLLDDYDYVGRCLVRLAIKTRSQNNAFLNALDNFMSSSE	not soluble
APQGINQFALLLNKQDTLTEFDTLVPGRFQAMRDGTRVTYTEELSKDRGELAGIFISQKDLNSSNQERGISILVAEKGTQNIQADGSRYLILHNGYRYDGNPGQANYRAIQYDTYGVMLPKPEASSEVSERDAVPTADLFGSDNPRYQAELQWR	not soluble
MSLRLALFDLDNTLLGGDSDHAWGDYLCERGFLDAVAYKTRNDEFYQDYLAGKLDNAAYLNFCLEILGRTDMVVLEEWHRDFMRDCIEPILLPKAQALLDKHRAAGDKLVIITATNRFVTAPIAERLGVETLIATECEMQDGRYTGRSTDVPCFREGKVTRLNRWLEETGHSLEDSYFYSDSMNDLPLLEQVTTAVAVDPDPNLRAEAEKRGWQVISLRDEGHHHHHH	soluble
MTENQNGKVDPVAIRELISQGIPMKRKESEIKRSQSEEQCVESECPNDEPMSKDFSRVSRRERRKSDKGDYESLFICRNTLKNRKTIYIAKELQDTLAEIVMSMRNRDMTIGIYVENIILHHLETYKDEINRLAEMKFRKLL	not soluble
MKEPLDLSKYSVRTDLAVEAHQMLQERQEEQQQGIQGVIVKEREEEGIIITKVTIDEVASESMGKKPGNYLTLEVQGIRQQDTELQQKVERIFAKEFSYFLEEVGVTKEASCLIVGLGNWNVTPDALGPIVVENVLVTRHLFQLQPESVEEGFRPVSAIRPGVMGITGIETSDVIYGIIEKTKPDFVIAIDALAARSIERVNSTIQISDTGIHPGSGVGNKRKELSKETLGIPVIAIGVPTVVDAVSITSDTIDFILKHFGREMKEGNKPSRSLLPAGFTFGEKKKLTEEDMPDEKSRNMFLGAVGTLEDEEKRKLIYEVLSPLGHNLMVTPKEVDAFIEDMANVIASGLNAALHHQIDQDNTGAYTH	not soluble
MAGQLTFKRELEKVFEKELKKRIERIGKTPLSPLSLILFTRIAELSAIENGYIRPTEYEMREIFAARTTYSEGLLSTLKDIIYSHFLRSNLGEHLEDFIYTLQRIEDIQSKIDELILREMREVSLRKVYHELLRFLLDMLCDKDMVRFD	not soluble
MIEKVLVVVIIGVVGAYAQGSCRTDQHEMTCRGKNSLHDLKKDQDYLEVDTLNVHQAKLDLTDDLVPDGINLSHLTLLNATDNQITRIGRRGFDKIRNMQFLYLSINQISHSQPDPFQALEKLKRLEMNDALDGNMEEKSDMLRNFFHSKNSFVHLAQIELNKNKIEGIYPKTFCGIQGLQRLELSNNRIPSFDFARTCLKELKALMLAGNLIQKIPADIWDFLPSLSSLDISNNPIDCDCATIRLLSGDDVVFLNQADTKCASPPELEGKRIFELSRDYCKTTRNPRGKASFFQFLVLFVIAVGSEFLF	not soluble
MLERTQVFVDTSYLLASFYNSWEIGARAQLEIDLPEVVATLGNMIHNQLGQPVHRQFWYDGIPESGPHRYQRALRTCDGVQLRAGQLIEWGERRTQKAVDTRLVADMVLAGVRREFTDIVLVSGDADMIPGVQEAVNAGVRVHLYGFGWDSMSSALRHACDSTTILDPREDFSDCMQLEILEGPLPPVVRNPDEEGEEGEFPAAAAEATAAAAEAAADTTVTTDATDNEATPPVPTPEQVAEKSQREAPAAPIPCPQRPGEPALSEEDCMAEVPAKMPKPVAPKPGAHLPAETPAPAPTATPAPTPSSRTVRVTSTVEESLEVTVSNSAEPNVEAEEADTPATPRPAPNPSMMAPRRKLRSRYVPLPNEVWASAGYQTPFDVGQQYALWWFDNAATPEQRDSAHLLSGGGLPPEIDRPLLQFACETLHEYTLTEAQRVGLRDGFHSGIRGVLINNQNS	not soluble
MEALILEPSLYTVKAILILDNDGDRLFAKYYDDTYPSVKEQKAFEKNIFNKTHRTDSEIALLEGLTVVYKSSIDLYFYVIGSSYENELMLMAVLNCLFDSLSQMLRKNVEKRALLENMEGLFLAVDEIVDGGVILESDPQQVVHRVALR	soluble
MKTVICGVQNMTTIRRLSAEDLLHFNSVNLDQLTETFNLGFYFNYLARWPDYQYVVTDSQSTTVAYIIGKAEGAGDLFHGHVSAVTVAPWFRRMGLASLLMEILENVSEKVYQGYFVDLFVRVSNHRAIEMYKKLGYIVYRRIIGYYSGEEDAFDMRKSLSKDPERKAMIPLDRPVYPSEVLLTD	soluble
MSLGMHLPGGIVENVRKRPGMYCGDVGEYGLHHLVYFLLDVAYEEARRGECRDVVLEVGGDGSIALFCTSRTVTAENLVRVATGAGFLGRPPGDGWGWDSMLVVSLALSSRYQVDIWADGRQWRVMGEHGHPQGEGAAVTPMEPMPVSAERGVRVHFVPDATIFEVLAFDRARLSRRCNELAALAPGLRVSFADLQRGERTLWHLPGGVAQWAHVLTEARPQLHPEPVVFDFTWDGLRVQCALQWCEDEDSTLLSFANAVRTVRHGAHVKGVTQALRGALAKLSGETRGAFPWARVAQGLTAIVAVSGPRRQMAFAGPTKELLAIPGLEEAIRKQLQPLFIELLREHPVTPALLARRTSGSEGHHHHHH	soluble
MPNLNAVIAQNISKGDVIWVPYRKDPMWPALVNNAYPKKVSYSFFPLAPGVDETKRSRFSCAPKLTYALVTTEPLPENANSDLKKAHRAACEYLSSNGKTRGSNIQSLGEAAGGSEKMKKMNGEVTKNKTGKPEKRKKKVDSEQQENEEDDEDLMSPVSKKPSSSERSTPSGSQQQPPITEEQSKSMMKMIDDRFEVLINEIWKSDEVAQSKNQTMKDKMTIKLKNNQFLKESDYDIVFERIFNFIRMQNPSLSFISTFNITSSHIIPHILITCYSACRNLDYQTSKEIFYQLNTRVLGLDSSMSIPVTDHLEELCRLACDESDAIQILENEHGDKISKDGTATQTRGNVFEEMR	not soluble
MGSDKIHHHHHHMLTTVKEKIEALNSEVSYRVKLWQYAPNLPKVESRDRLIVDTLKSEGVYITTLQELGLPSTAQLLKASHTLLPGMGQGSYAESAQNPPEIYTVTHIPDFYNWGSESRLLNILENYIGLPVAYHGVQIRKDFVNANQFSTMLWHRDSEDRRIVKIIIYLSDVEEKHGPFEYVPASFTSIDSLNFYRLYYKIHKSGINDEALNKIVPKSAWKSCTGPAGSVIIADTQRLLHHGTVRTEERSTLFYAYTANPAKRPGLCTQYWDDTFPKPNYS	not soluble
